The values that follow come from patent US20250304690A1 (HANGZHOU VIROMAB BIOTECH, published 2025).

Changes are numbered by the printed parent chain.

First the molecules themselves.
B1: TT3 Ab-2 (antibody, human IgG1, kappa, V domains shown)
VH: QVQLVQSGAEVKKPGASVKVSCKASGYTFTNYYMKWVKQAPGQSLEWIGDLNPNNGDTFYNQKFKGRVTITVDKSASTAYMELNSLRSEDTAVYYCARTGRYEENAMDYWGQGTLVTVSS
VL: DLVMTQSPASLAVSPGQRATITCRASESVDSYGKSFMHWYQQKPGQPPKLLIYRASNLESGVPARFSGSGSRTDFTLTINPVEANDTANYYCQQNNEDPWTFGQGTKLEIKR
notes: also called humanized anti-TT3 monoclonal antibody
B2: TT3 Ab-3 (antibody, human IgG1, kappa)
heavy: not shown
light: DLVMTQSPASLAVSPGQRATITCRASESVDSYGKSFMHWYQLKPGQPPKLLIYRASNLESGVPARFSGSGSRTDFTLTINPVEANDTANYYCQQNNEDPWTFGQGTKLEIKRTVAAPSVFIFPPSDEQLKSGTASVVCLLNNFYPREAKVQWKVDNALQSGNSQESVTEQDSKDSTYSLSSTLTLSKADYEKHKVYACEVTHQGLSSPVTKSFNRGEC
notes: as for B1
B3: TT3 Ab-1 (antibody, human IgG1, kappa, V domains shown)
VH: B1 VH with S44R, I48M, N84S
VL: B1 VL with L2I, M4L
notes: as for B1
B4: Ab-TT3 (antibody, V domains shown)
VH: EVQLEQSGPELVKPGASVKMSCKASGYTFTNYYMKWVKQSHGKSLEWIGDLNPNNGDTFYNQKFKGKATLTVDKSSNTAYMQLNSLTSEDSAVYYCARTGRYEENAMDYWGQGTSVTVSS
VL: ELVMTQSPASLAVSLGQRATISCRASESVDSYGKSFMHWYQLKPGQPPKLLIYRASNLESGVPARFSGSGSRTDFTLTIDPVEADDAATYYCQQNNEDPWTFGGGTKLEIK
notes: also called anti-Strep tag II antibody before humanization
B5: BK-B-110 (bispecific antibody)
chain: ELVMTQSPASLAVSLGQRATISCRASESVDSYGKSFMHWYQLKPGQPPKLLIYRASNLESGVPARFSGSGSRTDFTLTIDPVEADDAATYYCQQNNEDPWTFGGGTKLEIKGSTSGSGKPGSGEGSTKGEVQLEQSGPELVKPGASVKMSCKASGYTFTNYYMKWVKQSHGKSLEWIGDLNPNNGDTFYNQKFKGKATLTVDKSSNTAYMQLNSLTSEDSAVYYCARTGRYEENAMDYWGQGTSVTVSSPCPAPEFEGGPSVFLFPPKPKDTLMISRTPEVTCVVVDVSHEDPEVKFNWYVDGVEVHNAKTKPREEQYNSTYRVVSVLTVLHQDWLNGKEYKCKVSNKALPASIEKTISKAKGQPREPQVYTLPPSREEMTKNQVSLTCLVKGFYPSDIAVEWESNGQPENNYKTTPPVLDSDGSFFLYSKLTVDKSRWQQGNVFSCSVMHEALHNHYTQKSLSLSPGKGGGGSGGGGSGGGGSQAVVTQESALTTSPGETVTLTCRSSTGAVTTSNYANWVQEKPDHLFTGLIGGTNKRAPGVPARFSGSLIGDKAALTITGAQTEDEAIYFCALWYSNLWVFGGGTKLTVLGGGGSGGGGSGGGGSEVKLLESGGGLVQPKGSLKLSCAASGFTFNTYAMNWVRQAPGKGLEWVARIRSKYNNYATYYADSVKDRFTISRDDSQSILYLQMNNLKTEDTAMYYCVRHGNFGNSYVSWFAYWGQGTLVTVSA
B6: BK-B-110-hu2 (bispecific antibody)
chain: ELVMTQSPASLAVSLGQRATISCRASESVDSYGKSFMHWYQLKPGQPPKLLIYRASNLESGVPARFSGSGSRTDFTLTIDPVEADDAATYYCQQNNEDPWTFGGGTKLEIKGSTSGSGKPGSGEGSTKGEVQLEQSGPELVKPGASVKMSCKASGYTFTNYYMKWVKQSHGKSLEWIGDLNPNNGDTFYNQKFKGKATLTVDKSSNTAYMQLNSLTSEDSAVYYCARTGRYEENAMDYWGQGTSVTVSSPCPAPEFEGGPSVFLFPPKPKDTLMISRTPEVTCVVVDVSHEDPEVKFNWYVDGVEVHNAKTKPREEQYNSTYRVVSVLTVLHQDWLNGKEYKCKVSNKALPASIEKTISKAKGQPREPQVYTLPPSREEMTKNQVSLTCLVKGFYPSDIAVEWESNGQPENNYKTTPPVLDSDGSFFLYSKLTVDKSRWQQGNVFSCSVMHEALHNHYTQKSLSLSPGKGGGGSGGGGSGGGGSQAVVTQEPSLTVSPGGTVTLTCRSSTGAVTTSNYANWVQQKPGQAPRTLIGGTNKRAPWVPARFSGSLLGDKAALTLSGAQPEDEAEYYCALWYSNLWVFGGGTKLTVLGGGGSGGGGSGGGGSEVQLVESGGGLVQPGGSLRLSCAASGFTFNTYAMNWVRQAPGKGLEWVARIRSKYNNYATYYADSVKDRFTISRDDSKNILYLQMNSLKTEDTAVYYCVRHGNFGNSYVSWFAYWGQGTLVTVSA
B7: BK-B-110-hu4 (bispecific antibody)
chain: B6 chain with V544T, D555G, V703M
B8: BK-B-110-hu1 (bispecific antibody)
chain: B6 chain with V544T, D555G
B9: BK-B-110-hu5 (bispecific antibody)
chain: B6 chain with V703M
B10: BK-B-110-hu6 (bispecific antibody)
chain: B6 chain with Q524E, V703M
B11: BK-B-110-hu3 (bispecific antibody)
chain: B6 chain with Q524E

Sequence of TT3 labeling polypeptide on cells (P01732 other isoform, or with tags, fused parts or gaps limits assumed): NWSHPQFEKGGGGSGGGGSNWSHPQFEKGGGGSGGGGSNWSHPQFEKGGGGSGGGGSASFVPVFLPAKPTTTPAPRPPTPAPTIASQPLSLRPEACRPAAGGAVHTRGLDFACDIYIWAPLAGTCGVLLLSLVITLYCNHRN

The target of the first assay is TT3 antigen (ELISA coating antigen). The experiment in a line: ELISA, plate-coated TT3 antigen.
Procedure: The activity of the prepared humanized antibodies was assessed by ELISA as follows: The TT3 antigen was diluted to 0.5 g/mL using a coating solution and added to a 96-well plate at 100 L/well, and the plate was incubated overnight at 4° C. The plate was washed with PBST. Then 200 μL of an antibody blocking solution was added to each well, and blocking was performed at 37° C. for 2 h. The plate was washed with PBST. Different antibodies (initial concentration: 100 nM; serially diluted in a 1:6 ratio) were added at 100 L/well, and the plate was incubated at 37° C. for 2 h. The plate was washed with PBST. An HRP-bound goat anti-human/mouse IgG antibody was added at 100 μL/well, and the plate was incubated at 37° C. for 1 h. The plate was washed with PBST, and TMB was added at 100 L/well. Color development was performed at 37° C. for 10-20 min, and 50 µL of 2 M sulfuric acid was added to each well to stop the reaction. OD readings were taken at a wavelength of 450 nm.
By EC50 is commonly meant the concentration needed to bring the measured effect to its halfway point. A high value points to weaker potency. On to B1, for which a half-maximal effect (EC50) was put at 0.0105 nM.
The molecule B2 displayed an EC50 of 0.014 nM.
In turn, B3 had a concentration giving a half-maximal response (EC50) of 0.0104 nM. This EC50 and that of the molecule before are within 1.5-fold of each other.
With B4, the response was half-maximal at 0.0878 nM (EC50). Against the preceding molecule, the EC50 is about 8.4-fold higher.

Another assay has as its target TT3 labeling polypeptide on cells. The experiment in a line: flow cytometry (as for Table 1). (In general: A flow cytometer gives signals particle by particle.)
Take B5: the binding result is given as “binds”.
As for B6, the binding result is recorded as “binds”.
B7: the binding result is “binds”.
Still for that read-out and setting: the entry for B8 is “binds”.
On the same count and under the same terms, the entry for B9 is “binds”; for B10 it is “binds”.
Same read-out and setting: then B11, with “binds”.

Another assay has the same target. Kind of assay: flow cytometry on MC38-TT3 cells.
Molecule B1 yielded an EC50 of 2.33 nM.
With B2, a half-maximal effect (EC50) was put at 0.588 nM. Against the preceding molecule, the EC50 is about 4-fold lower.
B3 gave an EC50 of 1.2 nM.

A further assay has the same target. The experiment in a line: flow cytometry on HCT116-TT3 cells.
B1 registered an EC50 of 0.958 nM.
The same measure, in the same setting: then B2, with 0.692 nM.
The molecule B3 returned an EC50 of 0.568 nM.

The target is the same in the next assay. The experiment in a line: flow cytometry on SK-HEP-1-TT3 cells.
Molecule B1 had an EC50 of 1.53 nM.
Turning to B2, it took 0.738 nM to reach a half-maximal effect (EC50).
B3: the EC50 was 0.546 nM.
